Results published in the nanobody polyreactivity screen of Harvey et al. (2022).

Assay: yeast display, Sf9 membrane polyspecificity reagent, FACS + sequencing; frameworks hold sequencing errors
Method in brief: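 Polyreactivity labels are assigned by the sorting gate from which each nanobody was recovered. The gates were low and high (top ~1%), set on anti-HA fluorescence for expression and streptavidin fluorescence for reagent binding. Before sorting, galactose-induced (36–48 hours) yeast display cells were stained for 1 hour at 4 °C with 10% biotinylated, detergent-solubilized Sf9 membrane reagent.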

| Sequence | polyreactivity (PSR sort gate) |
| --- | --- |
| QVQLVESVGGLVQAGGSLRLSCAASGITFDKYAMGWYRQATVKERELVAAISGSDGSTYYADSVKGRFTISRDNAKNNVYLQMNSLKPEDTAVYYCAAESEYAGTYEYDYWGQGTQVTVSS | low polyreactivity |
| QVQLVESVGGLVQAGGSLRLSCAASGLILANYAMGWYRQAPGKERELVAAISSSGGSTYYADSVKGRFTISRDNAKNTVYLQMNSLKPEDTAVYYCAKAYRGGSAGKSYYYWGQGTQVTVSS | high polyreactivity |
| QVQLVESVGGLVQAGGSLRLSCAASGLMFWYYTMGWYRQAPGKERELVAAIRSGGSTNYADSVKGRFTISRDNAKNTVYLQMNSLKPEDTAVYYCAARKWHSAYDYWGQGTQVTVSS | high polyreactivity |
| QVQLVESVGGLVQAGGSLRLSCAASGLTFNHYAMGWYRQAPGKEMELVAAISKSGSSTYYADSVKGRFTISRDNAKNTVYLQMNSLKPEDTAVYYCAARSWDPALYDYWGQGTQVTVSS | high polyreactivity |
| QVQLVESVGGLVQAGGSLRLSCAASGNTFHTNAMGWYRQAPGKERELVAAITGGGSTYYADSVKGRFTISRDNAKNTVYLQMNSLKPEDTAVYYFNTDVPYGLDVSDTIDYYYWGQGTQVTVSS | low polyreactivity |
| QVQLVESVGGLVQAGGSLRLSCAASGNTFYVNVMGWYRQAPGKEREFVAAITWIGGSTYYADSVKGRFTISRDNAKNTVYLQMNSLKPEDTAVYYCAADVYNRWWWRAYDYWGQGTQVTVSS | high polyreactivity |
| QVQLVESVGGLVQAGGSLRLSCAASGRIFPVYAMGLYRQAPGKERELVAAISKRDGSTSYADSVKGRFTISRDNAKNTVYIQMNSLKPEDTAVYYCNARNHVQVLFRRDYWGQGTQVTVSS | low polyreactivity |
| QVQLVESVGGLVQAGGSLRLSCAASGRIFWGYDMGWYRQAPGKEREFVAAISSGGGRTYYADSVKGRFTISRDNAKNTVYLQMNSLKPEDTAVYYCNADSGSYWVPRGYEYWGQGTRVTVSS | low polyreactivity |
| QVQLVESVGGLVQAGGSLRLSCAASGRIFYVYVMGWYRPAPGKERELVAAISKRGDNTYYSDSVKGRFTISRDNAKNTVYLQMNSLKPEDTAVYYCNVKRYCGRSDYWGQGTQVTVSS | high polyreactivity |
| QVQLVESVGGLVQAGGSLRLSCAASGRILKRNAMGWYRQAPGKERELVAAISWSTGTTYYADSVKGRFTISRDNAKNTVYLQMKSLKPEDTAVYYSAKQIVSGRRVDRNDYWGQGTQVSVSS | low polyreactivity |
| QVQLVESVGGLVQAGGSLRLSCAASGRTFDYYALGWYRQAPGKERELVAAISSSGGRTYYADSVKGRFTISRDNAKNTVYLQMNSLKPEDTAVYYCNAVVSRNYEYWGQGTQVTVSS | high polyreactivity |
| QVQLVESVGGLVQAGGSLRLSCAASGRTFFKYAMGLYRQAPGKERELVAAITGRGGSTYADSVKGRFTISRDNAKNTVYLQMNSLKPEDTAVYYCAKVYQRGAQYYYYKYDYWGQGTQVTVSS | high polyreactivity |
| QVQLVESVGGLVQAGGSLRLSCAASGRTFGRYAMGWYRKAPGKERELVAAINRGGSTKYADSVKGRFTISRDNAKNTVYFQMNSLKPEDTAVDYCAKDRHPALHYDYWGQGTQVTVSS | low polyreactivity |
| QVQLVESVGGLVQAGGSLRLSCAASGRTFLRYAMGWYRQAPGKERELVAAISWSGGRTYYADSVKGRFTISRDNAKNTVYLQMNSLKPEDTAVYYCNKVVLYGAHYYYWGQGTQVTVSS | high polyreactivity |
| QVQLVESVGGLVQAGGSLRLSCAASGRTFSEYAMGWYRQAPGEERELVAAITSTGGITYYADSVKGRFTISRDNAKNTVYLQMNSLKPEDTAVYYCAARAYTWGPAGQVDKYYYWGQGTQVTVSS | high polyreactivity |
| QVQLVESVGGLVQAGGSLRLSCAASGRTFSRFAMGWYRKAPGKERELVAAISYSGGRTYYADSVKGRFTISRDNAKNTVYLQMNSLKPEDTAVYYCAASWPGDTVDYDYWGQGTQVTVSS | high polyreactivity |

| Sequence | polyreactivity (PSR sort gate) |
| --- | --- |
| QVQLVESVGGLVQAGGSLRLSCAASGRTFYHYAIGWYIQAPGQERELVAAITYRGGNTYYADSVKGRFTISRDNAKNTVYLQMNRLKPEDTAVYYCAKQGVRRHYGYDYWGQGTQVTVSS | high polyreactivity |
| QVQLVESVGGLVQAGGSLRLSCAASGRTFYQYALGWYRQAPGKERELVAVINGGGSTNYADSVKGRFTISRDNAKNTVYLQMNSLKPEDTAVYYCNADGRRGRYDYWGQGTQVTVSS | low polyreactivity |
| QVQLVESVGGLVQAGGSLRLSCAASGRTFYYYTMGWYRQAPGKEWELVAAISSTGNTYYADSVKGRFTISRDNAKNTVYLHMISLQPEDTAVYYCAALGYVKLLAQAYEYWGHGTQVTVSS | high polyreactivity |
| QVQLVESVGGLVQAGGSLRLSCAASGRTLYPNAMGWYRQAPGKERELVASISWSGVSTYYADSVKGRFTISRDNAKNTVYLQMNSLKPEDTAVYYCNAVGYWSDGLVWYEGDYWGQGTQVTVSS | low polyreactivity |
| QVQLVESVGGLVQAGGSLRLSCAASGSIFAGYAMGWYRQAPGKERELVAAISRRGGRTYYADSVKGRFTISRDIAKNTVYLQMNSLKPEVTAVYYCNRDYRRSTGSPEYDYWGQGTQVTVSS | high polyreactivity |
| QVQLVESVGGLVQAGGSLRLSCAASGSIFASNSMGWYRQETGKEREFVAAITWRTDRTYYADSVKGRFTISRDNAKNTLYFQMNSLKPEDTAVYYFAADTWFYRFYYWGQGTQVTVSS | high polyreactivity |
| QVQLVESVGGLVQAGGSLRLSCAASGSIFEQNAMGWYRQAPGKERELVAGINEGGGSTYYADSVKGRFTISRDNAKNTVYLQMNSLKPEDTAVYYCAAEYYDDFSYGWYDYWGQGTQVTVSS | high polyreactivity |
| QVQLVESVGGLVQAGGSLRLSCAASGSIFFSYAMGWYRQAPGKERELVAGINWSGGSTYADSVKGRFTISRDNAKNTVYLQMNSLKPEDTAVYYCAAKYYSERSRYHYWGQGTQVTVSS | low polyreactivity |
| QVQLVESVGGLVQAGGSLRLSCAASGSIFGDNAMGWYRQAPGKERELVAAITWRGGSTYYADSVKGRFTISRDNAKNTVYLQMNSLKPEDTAVYYCATDSRSHRDYWGQGTQVTVSS | low polyreactivity |
| QVQLVESVGGLVQAGGSLRLSCAASGSIFIANAIGWYRQAPGKERELVAAISWSGGRTYYADSVKGRFTISRDNAKNTVYLQMNSLKPEDTAVYYCAAVYGAYDSGRFLSFGNFDYWGQGTQVTVSS | high polyreactivity |
| QVQLVESVGGLVQAGGSLRLSCAASGSIFLQNAMGGYRQAPGKERELVAAITNGGSTNYADSVKGRFTISRDNAKNTVYLQMNSLKPEDTAVYYCAAYPLYTGSYDRGGYWGQGTLVTVSS | low polyreactivity |
| QVQLVESVGGLVQAGGSLRLSCAASGSIFRRYTMGWYRQAPGKERELFAAISRVGNTNYAHSVKGRFTISRDNAKNTVYLQMNSLKPEATAVYYCAARAIGYRYTPGLNYWGQGTQVTVSS | high polyreactivity |
| QVQLVESVGGLVQAGGSLRLSCAASGSIFWSNAMGWYRQAPGKERELVARISTSGGRTYYADSVKGRFTISRDNAKNTVYLQMNSLKPEDTAVYYCNAGKLYYRWLYDYWGQGTQVTVSS | high polyreactivity |
| QVQLVESVGGLVQAGGSLRLSCAASGSIFYPNAMGLYRQAPGKERELVAAISSSGGTNYADSVKGRFTISRDNAKNTVYLQMNSLKPEDTAVYYCNARDKVRYRYSRMDYWGQGTQVTVSS | low polyreactivity |
| QVQLVESVGGLVQAGGSLRLSCAASGSIIFTNVMGWYRQAPGKDREFVAAITGGGGSTYYADSVKGRFTISRDNAKNTVYLQMNSLKPEDTAVYYCATKAKPRSGYNYWGQGTQVTVSS | low polyreactivity |
| QVQLVESVGGLVQAGGSLRLSCAASGSIIKVYAMGWYRQAPGKERELVAGIRGSGGRTYYADSVKGRFTISRDNAKNTVYLQMNSLKPEDTAVYYCNARNPGRLGRFDYWGQGTQVTVSS | low polyreactivity |
